Results on 1 variant are retold here after IntAct's records for PubMed 21245319.

B1: Histone-lysine N-methyltransferase SETD7 (Homo sapiens), Q8WTS6 (parent)
chain: MDSDDEMVEEAVEGHLDDDGLPHGFCTVTYSSTDRFEGNFVHGEKNGRGKFFFFDGSTLEGYYVDDALQGQGVYTYEDGGVLQGTYVDGELNGPAQEYDTDGRLIFKGQYKDNIRHGVCWIYYPDGGSLVGEVNEDGEMTGEKIAYVYPDERTALYGKFIDGEMIEGKLATLMSTEEGRPHFELMPGNSVYHFDKSTSSCISTNALLPDPYESERVYVAESLISSAGEGLFSKVAVGPNTVMSFYNGVRITHQEVDSRDWALNGNTLSLDEETVIDVPEPYNHVSKYCASLGHKANHSFTPNCIYDMFVHPRFGPIKCIRTLRAVEADEELTVAYGYDHSPPGKSGPEAPEWYQVELKAFQATQQK

In this assay the parent is B1. The note with it: with sir1_human SIRT1, Q96EB6.
Chain of sir1_human SIRT1, Q96EB6 (Q96EB6 whole entry): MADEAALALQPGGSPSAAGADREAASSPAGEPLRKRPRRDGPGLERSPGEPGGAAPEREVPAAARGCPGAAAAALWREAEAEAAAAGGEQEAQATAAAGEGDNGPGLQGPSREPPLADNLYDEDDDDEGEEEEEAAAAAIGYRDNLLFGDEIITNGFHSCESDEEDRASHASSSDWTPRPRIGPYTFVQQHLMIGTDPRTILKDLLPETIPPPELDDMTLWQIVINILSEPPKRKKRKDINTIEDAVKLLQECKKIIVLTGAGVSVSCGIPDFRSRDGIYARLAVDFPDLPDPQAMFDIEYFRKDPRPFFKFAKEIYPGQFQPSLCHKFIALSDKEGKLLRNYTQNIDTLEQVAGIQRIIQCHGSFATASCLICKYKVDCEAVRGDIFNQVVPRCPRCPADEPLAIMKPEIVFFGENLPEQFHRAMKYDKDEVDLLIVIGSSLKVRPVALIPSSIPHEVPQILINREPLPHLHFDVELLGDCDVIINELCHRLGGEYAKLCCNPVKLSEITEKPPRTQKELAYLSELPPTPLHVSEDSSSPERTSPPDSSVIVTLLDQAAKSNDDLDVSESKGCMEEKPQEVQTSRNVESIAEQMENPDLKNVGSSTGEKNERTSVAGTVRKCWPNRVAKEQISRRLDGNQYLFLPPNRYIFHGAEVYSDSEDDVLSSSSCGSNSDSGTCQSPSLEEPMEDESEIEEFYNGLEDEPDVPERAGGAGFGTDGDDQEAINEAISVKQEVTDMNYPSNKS
For the variant MDSDDEMVEEAVEGHLDDDGLPHGFCTVTYSSTDRFEGNFVHGEKNGRGKFFFFDGSTLEGYYVDDALQGQGVYTYEDGGVLQGTYVDGELNGPAQEYDTDGRLIFKGQYKDNIRHGVCWIYYPDGGSLVGEVNEDGEMTGEKIAYVYPDERTALYGKFIDGEMIEGKLATLMSTEEGRPHFELMPGNSVYHFDKSTSSCISTNALLPDPYESERVYVAESLISSAGEGLFSKVAVGPNTVMSFYNGVRITHQEVDSRDWALNGNTLSLDEETVIDVPEPYNHVSKYCASLGHKANASFTPNCIYDMFVHPRFGPIKCIRTLRAVEADEELTVAYGYDHSPPGKSGPEAPEWYQVELKAFQATQQK [H297A], the “effect of a mutation on the interaction” value is on record as “decreasing interaction strength”.
